Drawing on patent US20160046711A1 (Novartis, published 2016), this text covers Geom. Mean Fluorescence and EC50 for four molecules.

In test [1] the target is T1, human CDH6 expressed on cells (human, UniProt P55285 54-790).
T1 sequence: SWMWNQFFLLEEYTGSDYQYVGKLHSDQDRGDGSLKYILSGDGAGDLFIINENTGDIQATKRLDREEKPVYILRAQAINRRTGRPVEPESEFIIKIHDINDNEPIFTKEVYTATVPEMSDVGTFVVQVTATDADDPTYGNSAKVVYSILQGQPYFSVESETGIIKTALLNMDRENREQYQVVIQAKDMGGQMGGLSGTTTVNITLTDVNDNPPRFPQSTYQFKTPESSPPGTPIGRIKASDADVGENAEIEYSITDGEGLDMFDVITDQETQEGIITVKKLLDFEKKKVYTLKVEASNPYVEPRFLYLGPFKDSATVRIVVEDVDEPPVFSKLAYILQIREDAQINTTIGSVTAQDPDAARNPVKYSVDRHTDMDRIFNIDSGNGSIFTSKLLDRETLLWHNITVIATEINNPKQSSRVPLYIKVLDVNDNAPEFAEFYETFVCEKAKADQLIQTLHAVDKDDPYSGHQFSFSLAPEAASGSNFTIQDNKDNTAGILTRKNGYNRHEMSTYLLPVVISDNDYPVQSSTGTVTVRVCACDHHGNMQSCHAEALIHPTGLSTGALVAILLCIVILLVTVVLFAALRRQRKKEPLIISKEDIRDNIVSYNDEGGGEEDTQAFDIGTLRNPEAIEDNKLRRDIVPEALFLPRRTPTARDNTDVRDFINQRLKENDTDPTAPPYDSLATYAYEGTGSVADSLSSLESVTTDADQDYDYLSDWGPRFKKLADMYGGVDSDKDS
As to the kind of experiment: FACS histogram on OVCAR3 cells.

The target of test [2] is T1, human CDH6 expressed on cells. Description: FACS histogram on OVCAR8-CDH6+ cells.
The target in test [3] is T2, CDH6 wt (human, UniProt P55285 54-615, limits assumed).
T2 sequence: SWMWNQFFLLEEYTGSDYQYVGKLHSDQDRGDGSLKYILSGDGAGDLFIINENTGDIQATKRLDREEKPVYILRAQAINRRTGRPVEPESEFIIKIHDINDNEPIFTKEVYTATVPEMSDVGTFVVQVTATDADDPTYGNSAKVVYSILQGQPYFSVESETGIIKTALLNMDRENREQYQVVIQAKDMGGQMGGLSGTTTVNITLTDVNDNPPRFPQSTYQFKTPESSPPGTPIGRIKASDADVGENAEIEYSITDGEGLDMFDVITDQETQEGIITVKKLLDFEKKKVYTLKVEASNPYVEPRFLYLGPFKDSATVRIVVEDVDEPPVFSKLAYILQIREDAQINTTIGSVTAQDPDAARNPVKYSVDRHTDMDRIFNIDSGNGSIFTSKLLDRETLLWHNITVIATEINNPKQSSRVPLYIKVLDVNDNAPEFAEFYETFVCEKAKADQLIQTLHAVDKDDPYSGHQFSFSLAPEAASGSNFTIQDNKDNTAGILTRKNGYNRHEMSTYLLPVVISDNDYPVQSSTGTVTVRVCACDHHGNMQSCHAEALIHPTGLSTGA
As to the kind of experiment: ELISA on coated CDH6-wt, O.D. (An ELISA detects its analyte on a solid surface through an enzyme-linked reagent.)

The target of test [4] is T3, CDH6-N573A (human, UniProt P55285 54-615).
T3 sequence: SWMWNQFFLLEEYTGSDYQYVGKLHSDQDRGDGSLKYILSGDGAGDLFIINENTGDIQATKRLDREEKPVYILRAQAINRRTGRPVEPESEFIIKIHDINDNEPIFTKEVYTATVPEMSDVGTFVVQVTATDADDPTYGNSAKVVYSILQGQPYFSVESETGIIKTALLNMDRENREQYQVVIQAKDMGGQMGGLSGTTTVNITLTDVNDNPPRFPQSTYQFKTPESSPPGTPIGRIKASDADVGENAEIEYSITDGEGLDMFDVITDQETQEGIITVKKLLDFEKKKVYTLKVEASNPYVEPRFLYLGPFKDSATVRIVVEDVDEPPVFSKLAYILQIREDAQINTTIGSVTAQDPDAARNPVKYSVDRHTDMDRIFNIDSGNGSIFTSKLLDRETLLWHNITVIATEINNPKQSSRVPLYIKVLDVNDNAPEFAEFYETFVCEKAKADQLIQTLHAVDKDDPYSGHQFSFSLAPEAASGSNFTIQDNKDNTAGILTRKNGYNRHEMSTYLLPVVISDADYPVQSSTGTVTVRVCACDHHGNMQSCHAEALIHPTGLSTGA
As to the kind of experiment: ELISA on coated CDH6-N573A, O.D.

The target of test [5] is T4, CDH6-D574A (human, UniProt P55285 54-615).
T4 sequence: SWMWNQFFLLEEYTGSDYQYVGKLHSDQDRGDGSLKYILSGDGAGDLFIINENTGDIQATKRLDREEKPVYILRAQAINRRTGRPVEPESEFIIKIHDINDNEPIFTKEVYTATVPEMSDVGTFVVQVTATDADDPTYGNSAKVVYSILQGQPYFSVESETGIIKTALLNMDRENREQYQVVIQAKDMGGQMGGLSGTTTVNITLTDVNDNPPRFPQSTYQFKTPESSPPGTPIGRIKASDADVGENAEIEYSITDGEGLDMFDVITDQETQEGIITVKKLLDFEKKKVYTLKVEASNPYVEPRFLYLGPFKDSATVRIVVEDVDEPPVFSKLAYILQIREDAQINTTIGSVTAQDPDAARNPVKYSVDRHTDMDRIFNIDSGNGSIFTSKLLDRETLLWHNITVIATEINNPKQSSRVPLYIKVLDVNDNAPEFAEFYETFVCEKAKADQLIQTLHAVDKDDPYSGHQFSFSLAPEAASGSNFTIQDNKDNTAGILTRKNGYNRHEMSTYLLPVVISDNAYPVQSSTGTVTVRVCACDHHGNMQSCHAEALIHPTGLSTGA
Description: ELISA on coated CDH6-D574A, O.D.

The target in test [6] is T3, CDH6-N573A. As to the kind of experiment: ELISA on coated CDH6-N573A, O.D. This is another data set of the same source.
In test [7] the target is T5, CDH6-Y575A (human, UniProt P55285 54-615).
T5 sequence: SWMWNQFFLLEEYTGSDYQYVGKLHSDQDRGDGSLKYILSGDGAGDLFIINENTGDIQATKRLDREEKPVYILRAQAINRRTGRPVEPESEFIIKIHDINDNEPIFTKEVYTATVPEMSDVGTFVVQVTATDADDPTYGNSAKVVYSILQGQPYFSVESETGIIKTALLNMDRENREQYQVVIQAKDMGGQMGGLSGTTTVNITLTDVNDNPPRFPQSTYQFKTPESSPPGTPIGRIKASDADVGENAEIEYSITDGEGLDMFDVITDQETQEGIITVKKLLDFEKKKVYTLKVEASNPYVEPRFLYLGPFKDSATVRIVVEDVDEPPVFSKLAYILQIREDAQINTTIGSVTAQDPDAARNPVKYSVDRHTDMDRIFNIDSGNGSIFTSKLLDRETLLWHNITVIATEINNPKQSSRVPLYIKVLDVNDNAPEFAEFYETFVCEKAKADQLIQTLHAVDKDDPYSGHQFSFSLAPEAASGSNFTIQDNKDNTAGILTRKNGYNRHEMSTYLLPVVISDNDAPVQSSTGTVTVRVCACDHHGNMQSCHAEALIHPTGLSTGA
As to the kind of experiment: ELISA on coated CDH6-Y575A, O.D.

Test [8] deals with T2, CDH6 wt. As to the kind of experiment: ELISA on coated CDH6-wt, O.D. The source holds these as a separate data set.
Test [9] deals with T2, CDH6 wt. As to the kind of experiment: ELISA on coated CDH6-wt, O.D. The source holds these as a separate data set.
Test [10] deals with T5, CDH6-Y575A. As to the kind of experiment: ELISA on coated CDH6-Y575A, O.D. This is another data set of the same source.
In test [11] the target is T4, CDH6-D574A. Description: ELISA on coated CDH6-D574A, O.D. This is another data set of the same source.
Test [12] addresses T3, CDH6-N573A. Description: ELISA on coated CDH6-N573A, O.D. The source holds these as a separate data set.

Where two headings read alike, the source gives them in different places.

The EC50 is the concentration needed to bring the measured effect to its halfway point. Read a low EC50 as higher potency in that assay. With human isotype control IgG (antibody), the Geom. Mean Fluorescence in [1] was 57.9; in test [2] it was 54.2. Further, the EC50 stood at 0.3 µM in test [3] and 0.545 µM in test [4].

In the case of non-binding control ADC (antibody), the Geom. Mean Fluorescence in test [1] came out at 60.4; in test [2], 56.5.

B1: NOV0720 (antibody, human IgG1, lambda, V domains shown)
VH: QVQLQQSGPGLVKPSQTLSLTCAISGDSVSSNSAGWNWIRQSPSRGLEWLGRIYYRSKWYNDYAVSVKSRITINPDTSKNQFSLQLNSVTPEDTAVYYCAREKYTVSFYDFFDYWGQGTLVTVSS
VL: DIELTQPPSVSVSPGQTASITCSGDNIGSMTAHWYQQKPGQAPVLVIYDKNERPSGIPERFSGSNSGNTATLTISGTQAEDEADYYCQSWDDSYNSVVFGGGTKLTVLG
Take B1: the EC50 in [5] is 7.58 µM; in test [6], 6.74 µM; in test [7], 7.2 µM; in [8], 7.11 µM.

B2: NOV0710 (antibody, human IgG1, kappa, V domains shown)
VH: QVQLLESGGGLVQPGGSLRLSCAASGFTFSSYAMSWVRQAPGKGLEWVSVIRSSGSSTYYADSVKGRFTISRDNSKNTLYLQMNSLRAEDTAVYYCARGGGYFDYWGQGTLVTVSS
VL: DIQMTQSPSSLSASVGDRVTITCRASQSISLWLNWYQQKPGKAPKLLIYAASTLQSGVPSRFSGSGSGTDFTLTISSLQPEDFATYYCQQYYTSPYTFGQGTKVEIKR
As to B2, the EC50 in [9] turned out to be 0.2 µM; in test [10] it was 0.287 µM; in test [11], 151 µM; in test [12], 459 µM.
